The record followed here is paper PMC6755090.

One data set deals with T1, AsiA (bacteriophage T4, UniProt P32267 1-90).
T1 sequence: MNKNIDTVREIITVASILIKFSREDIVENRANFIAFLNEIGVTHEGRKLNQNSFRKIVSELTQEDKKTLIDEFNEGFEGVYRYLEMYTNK
The data set is described as follows: fluorescence polarization; comparable affinity to the promoter scaffold; KD only in figure; FP: 10 mM HEPES pH 7.5, 50 mM KCl, 25°C, 0.1 μM DNA, 0-100 μM AsiA; EMSA: 7 mM Tris-HCl and 50 mM Tris-Ac pH 7.9, 0.19 M KGlu, 5 mM MgAc2, 50 mM K-phosphate pH. The note with it: protein: recombinant; tags: N-His6; label: 5' 6-FAM.

The target of the next data set is T2, Escherichia coli σ^70 (Escherichia coli, UniProt P00579 1-613).
T2 construct: RNA polymerase sigma factor σ^70 (RpoD) of Escherichia coli; holds σR2, σR3, σR3.2 and σR4 (helices S1-S5); also called principle σ factor
T2 sequence (P00579 whole entry): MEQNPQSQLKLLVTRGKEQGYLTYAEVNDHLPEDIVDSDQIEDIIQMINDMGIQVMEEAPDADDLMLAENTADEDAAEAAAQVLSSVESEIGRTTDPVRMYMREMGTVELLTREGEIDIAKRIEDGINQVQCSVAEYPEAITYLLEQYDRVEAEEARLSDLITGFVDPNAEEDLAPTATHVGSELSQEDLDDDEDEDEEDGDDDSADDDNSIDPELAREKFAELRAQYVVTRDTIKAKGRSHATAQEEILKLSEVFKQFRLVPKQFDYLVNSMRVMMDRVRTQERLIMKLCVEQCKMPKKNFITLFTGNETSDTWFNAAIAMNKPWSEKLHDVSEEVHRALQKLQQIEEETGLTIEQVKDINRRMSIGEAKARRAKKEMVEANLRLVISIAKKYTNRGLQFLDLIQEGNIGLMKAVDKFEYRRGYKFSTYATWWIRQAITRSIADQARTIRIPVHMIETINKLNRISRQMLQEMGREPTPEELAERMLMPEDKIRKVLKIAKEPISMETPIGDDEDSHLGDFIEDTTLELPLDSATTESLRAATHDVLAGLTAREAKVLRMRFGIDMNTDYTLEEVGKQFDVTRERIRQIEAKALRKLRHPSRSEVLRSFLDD
Nature of the data set: cryo-EM structure; σ appropriation complex assembled from σ^70, AsiA, RNAP core enzyme, MotA and a P_(uvsX) DNA scaffold, purified on Superose 6 in 10 mM HEPES pH 7.5, 50 mM KCl; 8 mM CHAPSO added; 3.79 Å. The note with it: both partners purified.

B1: irrelevant DNA scaffold (FP) (dsDNA)
DNA 1: GCAAATGAGCAACA
DNA 2: TGTTGCTCATTTGC
For the molecule B1, in the data set with AsiA, the binding result is “binds”.

B2: AsiA (natural protein, bacteriophage T4)
chain: T1 sequence
notes: AsiA, anti-sigma 70 protein of bacteriophage T4; synthetic gene in pET28a; A6 is the C-terminal helix; also called AisA; N-hexahistidine-tagged AsiA; source: E. coli BL21(DE3), plasmid pET28a-NH-AsiA, purified (Ni-NTA, Mono Q)
B2: the binding result with Escherichia coli σ^70 is “binds”.

B3: MotA (natural protein, bacteriophage T4, UniProt P22915 1-211, looked up)
chain: MSKVTYIIKASNDVLNEKTATILITIAKKDFITAAEVREVHPDLGNAVVNSNIGVLIKKGLVEKSGDGLIITGEAQDIISNAATLYAQENAPELLKKRATRKAREITSDMEEDKDLMLKLLDKNGFVLKKVEIYRSNYLAILEKRTNGIRNFEINNNGNMRIFGYKMMEHHIQKFTDIGMSCKIAKNGNVYLDIKRSAENIEAVITVASEL
notes: synthetic gene in pET21a; source: E. coli BL21(DE3), plasmid pET21a-MotA, purified (HiTrap Heparin, Mono S)
With B3, the binding result with Escherichia coli σ^70 is given as “binds”.
